# T1: A. baumannii F1Fo-ATP synthase γ-subunit (Acinetobacter baumannii ATCC 17978 …, UniProt A3M143 1-289)
# T1 construct: ATP synthase subunit gamma, Acinetobacter baumannii ATCC 17978; source: endogenous, A. baumannii ATCC 17978 membranes
# T1 sequence (looked up): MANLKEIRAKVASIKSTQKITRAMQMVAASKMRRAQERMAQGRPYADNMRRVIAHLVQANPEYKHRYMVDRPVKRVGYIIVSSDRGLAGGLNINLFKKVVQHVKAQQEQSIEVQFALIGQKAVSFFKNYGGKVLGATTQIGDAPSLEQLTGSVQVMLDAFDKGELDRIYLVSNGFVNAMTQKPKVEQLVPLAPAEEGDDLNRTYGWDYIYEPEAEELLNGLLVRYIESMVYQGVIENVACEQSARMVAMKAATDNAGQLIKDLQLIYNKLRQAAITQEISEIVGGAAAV
# B1: A. baumannii F1Fo-ATP synthase c-subunit (c10 ring) (natural protein, UniProt A3M139 1-81, looked up)
# chain: MELTLGLVAIASAILIAFGALGTAIGFGLLGGRFLEAVARQPELAPQLQTRMFLIAGLLDAVPMIGVGIGLFFIFANPFVG
# notes: ATP synthase subunit c, Acinetobacter baumannii ATCC 17978; also called c-ring; source: endogenous, A. baumannii ATCC 17978 membranes; copies: 10
# B2: A. baumannii F1Fo-ATP synthase β-subunit, StrepII-tagged (natural protein, Acinetobacter baumannii, UniProt A3M144 1-464, looked up)
# chain: MSSGRIIQIIGAVIDVEFERTSVPKIYDALQVDGTETTLEVQQQLGDGVVRTIAMGSTEGLKRGLTVTSTNAPISVPVGTATLGRIMDVLGRPIDEAGPVATEERLPIHRQAPSYAEQAASTDLLETGIKVIDLLCPFAKGGKVGLFGGAGVGKTVNMMELINNIAKAHSGLSVFAGVGERTREGNDFYHEMKDSNVLDKVAMVYGQMNEPPGNRLRVALTGLTMAEYFRDEKDENGKGRDVLLFVDNIYRYTLAGTEVSALLGRMPSAVGYQPTLAEEMGVLQERITSTKSGSITSIQAVYVPADDLTDPSPATTFAHLDATVVLSRDIASSGIYPAIDPLDSTSRQLDPLVVGQEHYEIARAVQNVLQRYKELKDIIAILGMDELAEEDKLVVYRARKIQRFFSQPFHVAEVFTGAPGKLVPLKETIRGFKGLLAGEYDHIPEQAFYMVGGIDEVIAKAEKL
# notes: ATP synthase subunit beta, Acinetobacter baumannii; gene at 3815454-3814060 of GenBank CP053098.1, amplified from genomic DNA with a StrepII tag coded at the 5' end; Three copies stand in the complex; also called βDP*; βTP; not shown: StrepII, N-terminal, kept
# B3: A. baumannii F1Fo-ATP synthase ε-subunit (natural protein, UniProt A3M145 1-139, looked up)
# chain: MATMQCDVVSVKESIYSGAVTMLIAKGAGGELGILPGHAPLVTLLQPGPIRVLLENGTEEIVYVSGGVLEVQPHVVTVLADTAIRADNLDEAAILEARKNAEQLLANQKSDLDSAAALAALAETAAQLETIRKIKNRAQ
# notes: ATP synthase subunit epsilon, Acinetobacter baumannii ATCC 17978; also called subunit ε; source: endogenous, A. baumannii ATCC 17978 membranes
# Tests used:
# Assay in all cases: cryo-EM structure; single-particle cryo-EM of the whole F1Fo-ATP synthase purified from A. baumannii membranes via the StrepII tag on β and reconstituted into peptidiscs; three rotational states; buffer A (50 mM Hepes pH 6.8, 150 mM KCl, 5 mM MgCl2) without detergent
# [1] = target: T2, A. baumannii F1Fo-ATP synthase a-subunit (Acinetobacter baumannii ATCC 17978 …, UniProt A3M137 1-291); details: both partners purified
# T2 construct: ATP synthase subunit a, Acinetobacter baumannii ATCC 17978; S5A; also called proton-conducting a-subunit; source: endogenous, A. baumannii ATCC 17978 membranes
# T2 sequence (A3M137 whole entry): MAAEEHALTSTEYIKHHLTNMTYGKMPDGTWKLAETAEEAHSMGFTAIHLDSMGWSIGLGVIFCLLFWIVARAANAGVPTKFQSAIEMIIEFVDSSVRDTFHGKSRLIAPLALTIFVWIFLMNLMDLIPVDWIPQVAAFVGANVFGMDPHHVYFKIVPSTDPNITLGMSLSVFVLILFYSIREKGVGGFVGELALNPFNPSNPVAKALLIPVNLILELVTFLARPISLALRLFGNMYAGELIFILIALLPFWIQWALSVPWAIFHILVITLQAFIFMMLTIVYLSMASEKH
# [2] = target: the molecule itself
# [3] = target: T3, A. baumannii F1Fo-ATP synthase α-subunit (Acinetobacter baumannii ATCC 17978 …, UniProt A3M142 1-514); details: both partners purified
# T3 construct: ATP synthase subunit alpha, Acinetobacter baumannii ATCC 17978; Three copies stand in the complex (α3β3γδεab2c10); also called αDP; αE; source: endogenous, A. baumannii ATCC 17978 membranes
# T3 sequence (A3M142 whole entry): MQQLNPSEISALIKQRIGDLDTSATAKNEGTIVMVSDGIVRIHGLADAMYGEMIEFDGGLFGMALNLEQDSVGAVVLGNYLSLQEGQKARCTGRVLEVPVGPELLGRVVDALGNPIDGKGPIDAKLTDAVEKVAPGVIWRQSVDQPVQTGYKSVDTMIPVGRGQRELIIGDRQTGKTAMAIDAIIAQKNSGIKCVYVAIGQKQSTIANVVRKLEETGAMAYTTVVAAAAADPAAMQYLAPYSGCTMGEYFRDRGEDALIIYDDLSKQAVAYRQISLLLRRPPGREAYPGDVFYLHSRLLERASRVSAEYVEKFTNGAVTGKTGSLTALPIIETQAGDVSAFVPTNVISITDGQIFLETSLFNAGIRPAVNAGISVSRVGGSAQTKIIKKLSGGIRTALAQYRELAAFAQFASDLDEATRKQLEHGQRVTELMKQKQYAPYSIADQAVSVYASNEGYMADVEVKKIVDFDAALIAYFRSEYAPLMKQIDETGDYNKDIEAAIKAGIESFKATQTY
# [4] = target: B2; details: both partners purified
# [5] = target: T1, A. baumannii F1Fo-ATP synthase γ-subunit; details: both partners purified
Binder,binding result [1],stoichiometry N [2],binding result [3],binding result [4],binding result [5]
B1,binds,10,–,–,–
B2,–,–,binds,–,–
B3,–,–,binds,binds,binds

# Source: publication PMC8849298, “Structure of ATP synthase from ESKAPE pathogen Acinetobacter baumannii” (Science Advances, 2022)
